Test results: publication PMC4300183, “Cloning and Characterization of a Weissella confusa Dextransucrase and Its Application in High Fibre Baking” (PLoS ONE, 2015)

Substrate: OC[C@H]1O[C@@](CO)(O[C@H]2O[C@H](CO)[C@@H](O)[C@H](O)[C@H]2O)[C@@H](O)[C@@H]1O
Assay: purified protein
Type: biochemical, Weissella confusa
Conditions: 20 mM Na-acetate pH 5.4, 2 mM CaCl2, 35 °C, sucrose 3-146 mM, labelled compound

B1: WcE392-rDSR (Wc392-rDSR; recombinant WcE392-DSR dextransucrase) (Weissella confusa) (protein)
chain: DQLATQPAESAEVTQHETPTDSQAPDSVTSLSDTKETVQSSAASVDSSHVATSSASETTSSASETSTKTSSAASSVASSATMLSATSSASSSVDATITDGYHDEGGNWVYYRDGKKLTGRQLIDTFNVYFDEDGHQVKGDWRETDGKRAYYDGQEGRALTETQVVDGAVRGFDADGYEITNGFGQTSNQDTYYFDNDGNHVTGIQVIDGKTYNFDDQGRMLKGIATEVNGTMMYFDDQTGVATPTSDPKFNPELEPVPNQNAQHNAAHGTTPEDFDNMAGYLTADTWYRPNDILDNGETWRESTPTEYRPLIETWWPTKQTQADYVNYMNDALQVSTKTVSAADSEATLTAAADAIQAAIERQITVKQSTDWLRELMAAFVVTQPQWNKSSEDENDDHLQGGALSFENNPDTDANSDYRLMNRTPTNQTGERLYHIDDSLGGYELLLANDVDNSNPQVQAEQLNWLYYLMNFGSITANDPDANFDAIRVDAVDNVDADLLQLAAQYFRDAYGMATNDATSNQHLSILEDWSHNDPAYMNEHGNDQLTMDDYMHTQLIWSLTKSDAQRGKMDRFLDFYLTNRANDNTENEAQPSYSFVRAHDSEVQTVIAEIVTKLHPEAGNGLMPTQAQMDEAFKIYNADQKKAVKEYTHYNMPSAYAMLLTNKDVIPRVYYGDLYTDDGQYMATKSPYFDAIDAMLKARTKYVAGGQTMAVDKNDVLTSVRFGKGAMTASDAGTAETRTEGVGLIISNNHDLKMADSDQVVLHMGIAHANQAFRAVVMTTATGLAIYNDDNAPIRYTDANGDLIFTNADVYGVLNPQVSGFLAMWVPVGASATQDARTAASTEATTDGSAYHSNAALDSQVIFEGFSNFQAMPTTHDEYTNVVLAKHTDLLTDWSVTSVQLAPQYRSSTDGTFLDSIIQNGYAFTDRYDLGFGTPTKYGDDNDLRDVIKSLHANGIQVMADFVPDQLYALPGKELVQVTRTNNMGEPDKNSEIQHLMYVTSTRGGGEYQKQYGGEFLAKLRELYPDLFTTDQISTGKPIDDSVKIKEWSAKYLNGTAIQGRGAGYVLRDAGNNSYYRVTANTGNTNLPNQMLGKPVLTGFQKLADGYHFETLSGSAAKDAFIKDDNGELYYFDNNGVMATGEQKVRGGQYFFLPNGIALTDAFIETEDGHMRYYDKNGQLVVNQYVTDHQANAFRVDADGNVIRSQALTVDGNEQYFGSNGVQAKAQMVRDENGQAHYYAAGNGNMIKNQFILDTDGHWLYADQNGNLARGMTTLNQGTLYFDDQNHQVKDDFVYDADGVHYFNGTNGAEVKNDYAYHNGKWYYFDENGRMVTGLQTINGELRYFGADGAQLKGGQATNQKTNQTYVFDETNGSGKLVTI
notes: secreted by Lactococcus lactis NZ9800 (pNZ8037), Ni-NTA purified; predicted mature 1381 residues, 152 kDa (~160 kDa on SDS-PAGE); precursor printed as 1432 residues, but 4272 bp ORF implies 1423
Km: 14.7 ± 2.3 mM | Vmax: 8.2 µmol/min/mg | kcat: 23.2 ± 1.1 s⁻¹ | kcat/Km: 1600 ± 300 M⁻¹ s⁻¹
